# Earlier results as cited in article PMC8495968, “Towards optimizing peptide-based inhibitors of protein–protein interactions: predictive saturation variation scanning (PreSaVS)” (RSC Chemical Biology, 2021).
# Molecular target: SIM (RanBP2) 2705-2717 (Homo sapiens) (UniProt P49792)
# Assay: fluorescence anisotropy
# SUMO-1, sequence (P63165 2-97): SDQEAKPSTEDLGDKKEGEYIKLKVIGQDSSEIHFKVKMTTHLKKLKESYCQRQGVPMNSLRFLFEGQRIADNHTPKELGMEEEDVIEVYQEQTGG
substance,measurement,value
SUMO-1 (from UniProt P63165),Kd,1500 nM
